The assay has as its target VBC ternary complex (pVHL, Elongin B, Elongin C) (UniProt P40337). Briefly: BLI; biotinylated VBC (25 ug/mL) immobilised on Super Streptavidin biosensors, peptides titrated; Octet RED384; 25 °C; 20 mM HEPES pH 7.6, 100 mM NaCl, 1 mM DTT, 0.02 % Tween-20; reference tips subtracted; 1:1 model.
Sequence of peptide C (8-mer Cul2 peptide, Leu3 replaced by phenylalanine) (Q13617 whole entry, looked up, tested part not stated): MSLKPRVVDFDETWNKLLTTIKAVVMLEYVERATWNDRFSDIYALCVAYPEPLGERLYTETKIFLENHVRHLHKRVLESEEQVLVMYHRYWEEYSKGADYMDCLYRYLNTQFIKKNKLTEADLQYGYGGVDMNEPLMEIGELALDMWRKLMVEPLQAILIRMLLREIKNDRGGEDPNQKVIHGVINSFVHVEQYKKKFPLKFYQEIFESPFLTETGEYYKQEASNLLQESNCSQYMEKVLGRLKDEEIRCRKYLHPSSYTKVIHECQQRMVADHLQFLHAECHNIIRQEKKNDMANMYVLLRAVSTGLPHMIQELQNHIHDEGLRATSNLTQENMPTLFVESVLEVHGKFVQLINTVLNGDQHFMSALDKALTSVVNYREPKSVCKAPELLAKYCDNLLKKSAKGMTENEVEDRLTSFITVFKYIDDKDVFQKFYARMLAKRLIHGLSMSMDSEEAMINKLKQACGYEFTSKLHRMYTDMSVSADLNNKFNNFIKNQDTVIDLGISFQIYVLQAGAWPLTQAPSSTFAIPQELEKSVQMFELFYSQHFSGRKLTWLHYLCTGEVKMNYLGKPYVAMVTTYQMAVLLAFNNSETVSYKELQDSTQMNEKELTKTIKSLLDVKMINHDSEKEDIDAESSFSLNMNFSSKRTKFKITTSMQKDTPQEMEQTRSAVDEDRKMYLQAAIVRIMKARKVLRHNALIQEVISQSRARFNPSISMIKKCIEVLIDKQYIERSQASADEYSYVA
Sequence of peptide D (8-mer Cul2 peptide, Leu3 replaced by tyrosine) (Q13617 whole entry, looked up, tested part not stated): as above
Broadly, the Kd is the constant that tells how readily two partners part at equilibrium. In the case of “peptide C (8-mer Cul2 peptide, Leu3 replaced by phenylalanine) (from UniProt Q13617 1-8)”, the dissociation constant Kd was 3100 µM. On to “peptide D (8-mer Cul2 peptide, Leu3 replaced by tyrosine) (from UniProt Q13617 1-8)”, for which the Kd is 7400 µM. In the case of “peptide F (8-mer Cul2 peptide, Leu3 replaced by norvaline) (from UniProt Q13617 1-8)” it was 1900 µM.

For the substance “peptide G (8-mer Cul2 peptide, Leu3 replaced by tert-butylglycine) (from UniProt Q13617 1-8)”, the Kd was found to be 900 µM. The same measure for “peptide H (8-mer Cul2 peptide, Leu3 replaced by phenylglycine) (from UniProt Q13617 1-8)”: 2100 µM. In the case of “peptide I (8-mer Cul2 peptide, Leu3 replaced by cyclohexhylglycine) (from UniProt Q13617 1-8)” it was 8900 µM; in that of “peptide K (8-mer Cul2 peptide, Leu3 replaced by thioproline) (from UniProt Q13617 1-8)”, 2200 µM.

Values taken from paper PMC5639367, “Structure‐Guided Design of Peptides as Tools to Probe the Protein–Protein Interaction between Cullin‐2 and Elongin BC Substrate Adaptor in Cullin RING E3 Ubiquitin Ligases” (Chemmedchem, 2017).
